Target: T1, IL-2 receptor (mouse, on CTLL-2 cells and murine splenocytes) (mouse, UniProt P01590 22-268; P16297 27-539; P34902 23-369)
T1 sequence (looked up) 1: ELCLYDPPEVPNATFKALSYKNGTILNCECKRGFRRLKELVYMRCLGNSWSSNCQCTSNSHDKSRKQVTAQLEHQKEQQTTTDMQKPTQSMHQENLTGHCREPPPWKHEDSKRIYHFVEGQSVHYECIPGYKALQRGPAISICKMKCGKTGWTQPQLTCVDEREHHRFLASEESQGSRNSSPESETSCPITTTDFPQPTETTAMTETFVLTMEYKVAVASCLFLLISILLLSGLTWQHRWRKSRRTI
T1 sequence (looked up) 2: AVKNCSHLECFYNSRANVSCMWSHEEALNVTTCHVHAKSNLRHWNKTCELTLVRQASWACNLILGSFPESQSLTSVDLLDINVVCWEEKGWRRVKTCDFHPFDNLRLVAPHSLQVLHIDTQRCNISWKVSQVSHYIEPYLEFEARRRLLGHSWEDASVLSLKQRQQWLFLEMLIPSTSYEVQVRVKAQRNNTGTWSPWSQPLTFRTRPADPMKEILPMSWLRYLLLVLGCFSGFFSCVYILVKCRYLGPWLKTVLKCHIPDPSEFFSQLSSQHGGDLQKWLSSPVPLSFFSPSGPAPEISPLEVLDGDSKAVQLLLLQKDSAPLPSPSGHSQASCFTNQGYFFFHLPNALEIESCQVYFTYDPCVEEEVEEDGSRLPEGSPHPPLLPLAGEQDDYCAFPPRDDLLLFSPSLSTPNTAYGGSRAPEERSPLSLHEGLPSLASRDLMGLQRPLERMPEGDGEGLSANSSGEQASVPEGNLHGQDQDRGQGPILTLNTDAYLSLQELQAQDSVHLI
T1 sequence (looked up) 3: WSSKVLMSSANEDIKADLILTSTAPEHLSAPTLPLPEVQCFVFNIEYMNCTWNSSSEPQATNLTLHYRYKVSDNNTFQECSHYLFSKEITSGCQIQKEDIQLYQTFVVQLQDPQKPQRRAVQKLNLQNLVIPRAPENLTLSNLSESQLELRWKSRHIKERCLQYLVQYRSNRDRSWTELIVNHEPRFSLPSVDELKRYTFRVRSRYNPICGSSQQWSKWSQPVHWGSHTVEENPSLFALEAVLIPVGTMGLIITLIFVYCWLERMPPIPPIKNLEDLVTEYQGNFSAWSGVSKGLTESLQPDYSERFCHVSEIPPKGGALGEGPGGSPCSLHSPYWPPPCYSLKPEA
Assay: cell-based or functional assay

Q: Which “Percent inhibition of IL-2 induced proliferation of murine splenocytes (recombinant human IL-2, trypan blue viable cell counts, 48 hours); amount needed relative to PEG-TT23” value does the source give for TGLNRILLGFLG [unconjugated peptide TT23] here?
A: The value was roughly 100 fold.
